Test results published in the RNAGym collection of RNA variant scans (doi:10.7554/elife.90254).

B1: LINE1-full (parent)
chain: UACGUAGGUGGUUUUCCCCUGAUAGUGCUAAGGGGGCCUGGAAGUUUGGACUGGGCAGAGCUCAACACAGCGUGGCAAAGUGGCUGUGGCUAGACUGCCUCUCUGGAUUCCUCGUCACUCAGCAGGGCAUCUCUGAGAGAAAUGCC

Variants of: B1
Assay: self-cleavage, relative activity (ratio to wild type); higher = more cleavage; in vitro, sequencing; the parent is a self-cleaving ribozyme

Variant | self-cleavage
A92U U132C | 0.83
A92U U96C | 0.11
A94G G126A | 0.21
C98A U108C | 0.4
U96A C103A | 0.06
C98A A138G | 0.29
A92G U130C | 0.11
A92U U130A | 0.67
U100C A142C | 2.2
C98G U102C | 0.14
U96G C120U | 0.04
A94G C133A | 0.46
A94G C113U | 0.09
U96A U104G | 0.08
C99U C145A | 1.03
A92U C110U | 0.46
A92G U143A | 0.14
U100C U102A | 1.95
U96C U143A | 0.13
G97A A117U | 0.17
C95U U104C | 0.54
U96C A107U | 0.17
U96C U134C | 0.11
A94U A129G | 0.3

Variant | self-cleavage
U96C C120U | 0.2
C95U U119C | 0.22
U96A U132A | 0.08
U100A G126A | 1.03
U100A U130C | 2.57
U100C C131U | 2.27
U100C C131G | 2.35
U96C | 0.13
U96A | 0.07
U96G | 0.1
A92U C120U | 0.78
U100C C111U | 1.48
G93A U112C | 0.06
C95A U143C | 0.08
U96A A117G | 0.11
C99U A129G | 0.89
A94G C110U | 0.32
A94G C110G | 0.22
U96A U143G | 0.1
U96A U143C | 0.06
U96A U143A | 0.38
A92U A129U | 0.6
A92U A129G | 0.69
C99A G114A | 0.44

Variant | self-cleavage
A92G U119C | 0.1
C99U A117G | 0.4
U96C G122A | 0.07
U96C A129C | 0.15
U96A U102A | 0.1
U96A U102C | 0.12
A94U A124U | 0.35
A94U A124G | 0.33
G97U A138U | 0.11
A92U A124U | 1.2
U96C C99U | 0.1
U100C A117G | 1.49
U100C A117C | 1.31
U100C A117U | 1.63
U96A G114A | 0.06
A94C A107G | 0.13
U96A U109C | 0.1
U100A A107G | 0.87
G93U U112C | 0.03
A92U U119C | 0.87
A94U U109A | 0.27
U96A U100A | 0.07
U100C C123U | 2.06
U100A A117G | 0.61

Variant | self-cleavage
U100A A117U | 1.01
C99U A138G | 1.14
C99U A138U | 0.74
G97A A138G | 0.14
U96A C111U | 0.07
G93A U109G | 0.06
G93A U109A | 0.03
U96A A142G | 0.08
G93U G122A | 0.06
G93U U109C | 0.02
G93U A140G | 0.05
U96G U112C | 0.05
U100A A142U | 0.74
U100A A142C | 1
U100C A121U | 2.11
U100C A121G | 1.21
U100A G139U | 0.31
U100C C110A | 1.77
G93U G127C | 0.19
C99U A140G | 0.71
A94G U102C | 0.18
A94G U96A | 0.11
A94G U96C | 0.11
G97A A140U | 0.02

Variant | self-cleavage
C95A G114A | 0.07
A92U U104A | 0.44
C95A | 0.07
C95U | 0.14
C95G | 0.06
G93A U108C | 0.03
A94G U132G | 0.28
C99U C133U | 0.34
U96A U112C | 0.06
U96A C116U | 0.11
U100C C146U | 1.71
G93U A107G | 0.06
U96C A124G | 0.06
G97C C111A | 0.18
C98U U115A | 0.44
C99U U130C | 0.69
U96C G114A | 0.11
C98U U130C | 0.5
A92U U108A | 0.6
G93U U102C | 0.04
U96A C145A | 0.06
G93C | 0.05
G93A | 0.04
G93U | 0.06

Variant | self-cleavage
U100A A138U | 0.89
U100A A138G | 1.18
A94G A140G | 0.26
A94C A117G | 0.22
A94C A117C | 0.07
A92G U109A | 0.08
A92G U109C | 0.09
C95U U96C | 0.07
G97A U115C | 0.3
C95A U100C | 0.09
A92U U109A | 0.34
A92U U109C | 0.65
U100A A140U | 0.57
U100A A140G | 0.76
G97A G114A | 0.15
U100A U132A | 0.31
G97A U134C | 0.07
U100A U134C | 1.12
U100A C145U | 1.15
A92G U104A | 0.06
U96C G105A | 0.06
G97A A136U | 0.11
C99U U108C | 0.71
A94C G126C | 0.23

Variant | self-cleavage
U96C G127U | 0.19
U96C G127A | 0.08
U96C G127C | 0.39
G93A A117G | 0.06
U96G A124G | 0.19
G93A G122C | 0.01
A94U G105A | 0.21
C98U A140G | 0.57
U96A U134C | 0.08
U100C A124G | 1.32
U100C A124U | 2.22
U96C G106U | 0.06
A94G A129U | 0.22
A92G U132C | 0.05
U100C A138G | 1.83
A94G A121C | 0.57
A94G A121G | 0.22
U100A U115A | 0.72
A92U A94G | 0.05
U96C A138G | 0.2
U100A U109A | 0.76
U100A A124U | 0.88
U100A A124C | 1.28
